The results in this text go back to US20160368960A1.

In one test the target is rat GLP-1-R (rat) (UniProt P32301). As to the kind of experiment: cell-based or functional assay.
For test [1], the target named is human Gcg receptor (human) (UniProt P47871). As to the kind of experiment: cell-based or functional assay.
Sequence of human Gcg receptor (human) (P47871 26-477): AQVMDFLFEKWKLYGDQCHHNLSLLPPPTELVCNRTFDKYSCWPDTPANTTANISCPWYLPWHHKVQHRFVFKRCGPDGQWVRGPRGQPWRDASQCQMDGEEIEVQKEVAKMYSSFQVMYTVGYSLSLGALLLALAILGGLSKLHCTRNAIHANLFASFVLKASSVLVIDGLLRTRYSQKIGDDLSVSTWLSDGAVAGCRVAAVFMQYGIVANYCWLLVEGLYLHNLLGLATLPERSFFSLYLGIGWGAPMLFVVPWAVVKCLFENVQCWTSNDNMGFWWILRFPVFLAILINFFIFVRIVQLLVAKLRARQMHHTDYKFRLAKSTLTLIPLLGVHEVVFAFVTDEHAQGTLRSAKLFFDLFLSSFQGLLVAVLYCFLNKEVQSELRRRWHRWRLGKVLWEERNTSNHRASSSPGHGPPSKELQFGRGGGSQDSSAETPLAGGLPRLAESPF

Sequence of Wild type human OXM (ligand) (peptide): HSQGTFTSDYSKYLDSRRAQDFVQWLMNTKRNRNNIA

In the test with rat GLP-1-R (rat), Semaglutide (peptide) displayed an Emax (%), cAMP production in INS1 832-3 cells of 107%. The substance Wild type human OXM (ligand) yielded an Emax (%), cAMP production in primary human hepatocytes in test [1] of 90%.
